Patent US20230322953A1 (HARBOUR BIOMED SHANGHAI, published 2023)
Each block holds one binder with its values, some of them ahead of it.

What was measured:
human BCMA [1] = molecular target: T1, human BCMA (human, UniProt Q02223 1-184); test: flow cytometry, HEK293T/hBCMA cells
T1 construct: whole, on cells; the cell line is named under assay; also called TNFRSF17; CD269
T1 sequence (looked up): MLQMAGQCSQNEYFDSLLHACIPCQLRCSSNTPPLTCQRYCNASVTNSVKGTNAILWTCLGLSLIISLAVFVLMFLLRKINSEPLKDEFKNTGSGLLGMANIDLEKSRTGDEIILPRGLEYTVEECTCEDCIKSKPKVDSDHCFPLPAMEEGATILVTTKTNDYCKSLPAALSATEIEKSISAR

cynomolgus monkey BCMA = molecular target: T2, cynomolgus monkey BCMA (cynomolgus monkey); test: flow cytometry, HEK293T/cyno BCMA cells
T2 construct: whole, on cells; also called cyno BCMA; HEK293T/cyno BCMA cells

human BCMA [2] = molecular target: T1, human BCMA; test: cell-based or functional assay
human BCMA [3] = molecular target: T1, human BCMA; test: flow cytometry, NCI-H929 cells
[4] = molecular target: T3, biotinylated human BCMA-Fc, Avitag recombinant protein (ACRO Biosystems, #BC7-H82F0) (human, UniProt Q02223 1-54, biotinylated); test: BLI (Octet Red96e), biotinylated BCMA-Fc on SA sensor, antibody in solution, 1:1 global fit
T3 construct: extracellular domain; Bought protein; also called human BCMA protein; recombinant human BCMA-ECD-Fc; not shown: Fc of the bought fusion protein; Avitag
T3 sequence (looked up): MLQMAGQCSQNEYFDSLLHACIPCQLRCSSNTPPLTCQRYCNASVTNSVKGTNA

[5] = molecular target: T4, human PD-L1 on cells (CHO-K1/hPDL1; MDA-MB-231) (human, UniProt Q9NZQ7 19-290); test: competition FACS: biotinylated PD-1 to CHO-K1/hPDL1 cells (Experiment 1)
T4 construct: whole, on cells

[6] = molecular target: T5, human CTLA4 on cells (CHO-K1/hCTLA4; HEK293/hCTLA4; 293F-hCTLA4) (human, UniProt P16410 36-223); test: FACS, CHO-K1/hCTLA4 cells (Test 1)
T5 construct: whole, on cells

[7] = molecular target: T6, biotinylated human CTLA4-Fc protein (ACRO Biosystems, #CT4-H82F3) (human, UniProt P16410 36-161, biotinylated); test: competition ELISA: biotinylated hCTLA4-Fc to coated B7-1-Fc
T6 construct: bought; also called human CTLA4 protein

[8] = molecular target: T5, human CTLA4 on cells (CHO-K1/hCTLA4; …); test: cell-based or functional assay
[9] = molecular target: T7, human CTLA4-His protein (ACRO Biosystems, #CT4-H5229) (human, UniProt P16410 36-161); test: ELISA, coated hCTLA4-His
T7 construct: extracellular domain; bought; also called hCTLA4-His; human CTLA4 extracellular domain recombinant protein

[10] = molecular target: T5, human CTLA4 on cells (CHO-K1/hCTLA4; …); test: competition FACS: biotinylated B7-1-Fc to CHO-K1/hCTLA4 cells (Test 1)
[11] = molecular target: T4, human PD-L1 on cells (CHO-K1/hPDL1; …); test: FACS, CHO-K1/hPDL1 cells (Experiment 1)
[12] = molecular target: T8, human PD-L1-His protein (ACRO Biosystems, #PD1-H5229) (human, UniProt Q9NZQ7 19-238); test: ELISA, coated hPD-L1-His
T8 construct: extracellular domain; bought; also called hPDL1-His; human PD-L1 extracellular domain recombinant protein

[13] = molecular target: T4, human PD-L1 on cells (CHO-K1/hPDL1; …); test: FACS, MDA-MB-231 cells
[14] = molecular target: T5, human CTLA4 on cells (CHO-K1/hCTLA4; …); test: FACS, HEK293/hCTLA4 cells
[15] = molecular target: T5, human CTLA4 on cells (CHO-K1/hCTLA4; …); test: FACS, CHO-K1/hCTLA4 cells (Test 2)
[16] = molecular target: T5, human CTLA4 on cells (CHO-K1/hCTLA4; …); test: competition FACS: biotinylated B7-1-Fc to CHO-K1/hCTLA4 cells (Test 2)

T8 sequence (Q9NZQ7 19-238): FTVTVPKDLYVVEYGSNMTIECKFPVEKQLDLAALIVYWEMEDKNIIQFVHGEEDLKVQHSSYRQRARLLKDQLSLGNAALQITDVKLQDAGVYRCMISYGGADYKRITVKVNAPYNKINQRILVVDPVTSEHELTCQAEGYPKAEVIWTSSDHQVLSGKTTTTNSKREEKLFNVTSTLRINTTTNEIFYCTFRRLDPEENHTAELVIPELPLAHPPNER
T5 sequence (P16410 36-223): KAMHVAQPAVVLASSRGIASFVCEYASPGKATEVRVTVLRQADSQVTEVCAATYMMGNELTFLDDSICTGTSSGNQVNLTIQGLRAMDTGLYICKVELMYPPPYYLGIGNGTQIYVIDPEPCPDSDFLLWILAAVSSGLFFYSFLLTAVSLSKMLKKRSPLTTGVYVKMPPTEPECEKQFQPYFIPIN
T4 sequence (Q9NZQ7 19-290): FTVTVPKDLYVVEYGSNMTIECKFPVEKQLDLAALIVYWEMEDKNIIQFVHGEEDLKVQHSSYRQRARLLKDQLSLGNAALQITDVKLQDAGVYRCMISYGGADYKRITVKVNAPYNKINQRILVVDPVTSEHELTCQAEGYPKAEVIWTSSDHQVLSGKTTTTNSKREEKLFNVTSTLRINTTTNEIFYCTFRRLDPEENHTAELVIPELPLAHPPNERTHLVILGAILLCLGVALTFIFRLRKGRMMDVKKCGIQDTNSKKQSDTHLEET
T7 sequence (P16410 36-161): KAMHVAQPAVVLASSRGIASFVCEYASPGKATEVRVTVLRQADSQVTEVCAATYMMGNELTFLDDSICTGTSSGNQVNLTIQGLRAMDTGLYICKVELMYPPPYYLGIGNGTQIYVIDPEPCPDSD
T6 sequence (P16410 36-161 limits assumed): as the sequence (P16410 36-161) above

B1: PR000274, anti-BCMA monoclonal antibody CA8-J6M0 (antibody, human IgG1, kappa, V domains shown)
VH: QVQLVQSGAEVKKPGSSVKVSCKASGGTFSNYWMHWVRQAPGQGLEWMGATYRGHSDTYYNQKFKGRVTITADKSTSTAYMELSSLRSEDTAVYYCARGAIYDGYDVLDNWGQGTLVTVSS
VL: DIQMTQSPSSLSASVGDRVTITCSASQDISNYLNWYQQKPGKAPKLLIYYTSNLHSGVPSRFSGSGSGTDFTLTISSLQPEDFATYYCQQYRKLPWTFGQGTKLEIKR
notes: Control antibody; also called Positive control 1; CA8-J6M0 hIgG1
EC50 (human BCMA [1]): 4.08 nM
Maximum MFI (human BCMA [1]): 86500
EC50 (cynomolgus monkey BCMA): 4.56 nM
Maximum MFI (cynomolgus monkey BCMA): 116000
EC50 (nM), target cell killing mediated by antibody internalization (HEK293T/hBCMA cells, a-hFc-MMAF) (human BCMA [2]): 2.18 nM
Maximum killing rate (%), target cell killing mediated by antibody internalization (HEK293T/hBCMA cells, a-hFc-MMAF) (human BCMA [2]): 77.2%
EC50 (human BCMA [3]): 10.8 nM
Maximum MFI (human BCMA [3]): 125000

B3: PR000300 (bispecific antibody, human IgG1, kappa)
light: DIQMTQSPSTLSASVGDRVTVTCRASQSIYIWLAWYQQKPGKAPNLLIYKASSLETGVPSRFSGSGSGTEFTLTISSLQPDDFATYYCQQYYGSSRTFGQGTKVEIKRTVAAPSVFIFPPSDEQLKSGTASVVCLLNNFYPREAKVQWKVDNALQSGNSQESVTEQDSKDSTYSLSSTLTLSKADYEKHKVYACEVTHQGLSSPVTKSFNRGEC
chain: not shown
notes: PR000070 + VH of PR000184
IC50 [5]: 0.677 nM
Maximum inhibition rate (%) [5]: 96.6%
EC50 [6]: 2.91 nM
Maximum MFI [6]: 2620 MFI
IC50 [7]: 2.09 nM
Maximum inhibition rate (%) [7]: 98.2%
ADCC killing of 293F-hCTLA4 cells, EC50 [8]: 0.008 nM
ADCC killing of 293F-hCTLA4 cells, Maximum killing rate (%) [8]: 23.8%
EC50 [9]: 0.567 nM
Maximum OD450 [9]: 2.95 OD450
IC50 [10]: 6.42 nM
Maximum inhibition rate (%) [10]: 101%
EC50 [11]: 0.884 nM
Maximum MFI [11]: 21000 MFI
EC50 [12]: 0.108 nM
Maximum OD450 [12]: 3.52 OD450

B4: PR000265, anti-PD-L1 91G3H5H3(D54E), hIgG1(N297A) (antibody)
heavy: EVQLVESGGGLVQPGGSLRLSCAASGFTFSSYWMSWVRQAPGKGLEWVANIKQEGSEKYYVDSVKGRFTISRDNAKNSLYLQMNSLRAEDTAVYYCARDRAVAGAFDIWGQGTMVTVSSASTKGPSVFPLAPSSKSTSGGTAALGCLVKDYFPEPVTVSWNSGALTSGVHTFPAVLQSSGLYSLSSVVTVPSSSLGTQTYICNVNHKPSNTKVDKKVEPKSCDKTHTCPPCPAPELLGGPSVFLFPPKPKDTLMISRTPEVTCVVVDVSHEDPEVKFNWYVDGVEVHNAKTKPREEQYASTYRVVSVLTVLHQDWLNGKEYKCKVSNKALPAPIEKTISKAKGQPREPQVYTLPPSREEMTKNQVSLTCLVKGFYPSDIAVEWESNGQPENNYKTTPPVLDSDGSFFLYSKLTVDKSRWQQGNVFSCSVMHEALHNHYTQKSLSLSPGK
light: DIQMTQSPSTLSASVGDRVTVTCRASQSIYIWLAWYQQKPGKAPNLLIYKASSLETGVPSRFSGSGSGTEFTLTISSLQPDDFATYYCQQYYGSSRTFGQGTKVEIKRTVAAPSVFIFPPSDEQLKSGTASVVCLLNNFYPREAKVQWKVDNALQSGNSQESVTEQDSKDSTYSLSSTLTLSKADYEKHKVYACEVTHQGLSSPVTKSFNRGEC
EC50 [13]: 0.163 nM
Maximum MFI [13]: 958 MFI

B5: PR000401 (bispecific antibody, human IgG1, kappa, L234A L235A)
light: DIQMTQSPSTLSASVGDRVTVTCRASQSIYIWLAWYQQKPGKAPNLLIYKASSLETGVPSRFSGSGSGTEFTLTISSLQPDDFATYYCQQYYGSSRTFGQGTKVEIKRTVAAPSVFIFPPSDEQLKSGTASVVCLLNNFYPREAKVQWKVDNALQSGNSQESVTEQDSKDSTYSLSSTLTLSKADYEKHKVYACEVTHQGLSSPVTKSFNRGEC
chain: EVQLVESGGGLVQPGGSLRLSCAASGFTFSSYWMSWVRQAPGKGLEWVANIKQEGSEKYYVDSVKGRFTISRDNAKNSLYLQMNSLRAEDTAVYYCARDRAVAGAFDIWGQGTMVTVSSASTKGPSVFPLAPSSKSTSGGTAALGCLVKDYFPEPVTVSWNSGALTSGVHTFPAVLQSSGLYSLSSVVTVPSSSLGTQTYICNVNHKPSNTKVDKKVEPKSCDKTHTCPPCPAPEAAGGPSVFLFPPKPKDTLMISRTPEVTCVVVDVSHEDPEVKFNWYVDGVEVHNAKTKPREEQYNSTYRVVSVLTVLHQDWLNGKEYKCKVSNKALGAPIEKTISKAKGQPREPQVYTLPPSREEMTKNQVSLTCLVKGFYPSDIAVEWESNGQPENNYKTTPPVLDSDGSFFLYSKLTVDKSRWQQGNVFSCSVMHEALHNHYTQKSLSLSPGKLEPKSSDKTHTPPPPPRTEVQLVESGGGLIQPGGSLRLSCAVSGFTVSKNYMSWVRQAPGKGLEWVSVVYSGGSKTYADSVKGRFTISRDNSKNTLYLQMNSLRAEDTAVYYCARAVPHSPSSFDIWGQGTMVTVSS
notes: PD-L1×CTLA4, structure 5
EC50 [13]: 0.288 nM
Maximum MFI [13]: 994 MFI
EC50 [14]: 5.17 nM
Maximum MFI [14]: 1910 MFI

B6: PR000184, anti-CTLA4 heavy-chain antibody CL5v3, hIgG1 (antibody, V domains shown)
VH: EVQLVESGGGLIQPGGSLRLSCAVSGFTVSKNYMSWVRQAPGKGLEWVSVVYSGGSKTYADSVKGRFTISRDNSKNTLYLQMNSLRAEDTAVYYCARAVPHSPSSFDIWGQGTMVTVSS
notes: heavy-chain-only antibody (VH-Fc dimer); also called anti-CTLA4 HCAb monoclonal antibody PR000184
EC50 [15]: 4.64 nM
Maximum MFI [15]: 722 MFI
IC50 [16]: 3.01 nM
Maximum inhibition rate (%) [16]: 100%
EC50 [6]: 1.69 nM
Maximum MFI [6]: 1670 MFI
IC50 [7]: 2.67 nM
Maximum inhibition rate (%) [7]: 97.2%
ADCC killing of 293F-hCTLA4 cells, EC50 [8]: 0.015 nM
ADCC killing of 293F-hCTLA4 cells, Maximum killing rate (%) [8]: 30.2%
EC50 [9]: 0.599 nM
Maximum OD450 [9]: 3.01 OD450
IC50 [10]: 4.13 nM
Maximum inhibition rate (%) [10]: 99.7%
EC50 [14]: 1.15 nM
Maximum MFI [14]: 2260 MFI

B7: PR000301 (bispecific antibody, human IgG1, kappa)
chain: EVQLVESGGGLIQPGGSLRLSCAVSGFTVSKNYMSWVRQAPGKGLEWVSVVYSGGSKTYADSVKGRFTISRDNSKNTLYLQMNSLRAEDTAVYYCARAVPHSPSSFDIWGQGTMVTVSSKLEPKSSDKTHTPPPPPRTDIQMTQSPSTLSASVGDRVTVTCRASQSIYIWLAWYQQKPGKAPNLLIYKASSLETGVPSRFSGSGSGTEFTLTISSLQPDDFATYYCQQYYGSSRTFGQGTKVEIKRTVAAPSVFIFPPSDEQLKSGTASVVCLLNNFYPREAKVQWKVDNALQSGNSQESVTEQDSKDSTYSLSSTLTLSKADYEKHKVYACEVTHQGLSSPVTKSFNRGEC
heavy: not shown
IC50 [5]: 0.882 nM
Maximum inhibition rate (%) [5]: 96.2%
EC50 [6]: 1.94 nM
Maximum MFI [6]: 2360 MFI
IC50 [7]: 2.51 nM
Maximum inhibition rate (%) [7]: 98.3%
ADCC killing of 293F-hCTLA4 cells, EC50 [8]: 0.031 nM
ADCC killing of 293F-hCTLA4 cells, Maximum killing rate (%) [8]: 36.6%
EC50 [9]: 0.35 nM
Maximum OD450 [9]: 2.92 OD450
IC50 [10]: 3.21 nM
Maximum inhibition rate (%) [10]: 99.9%
EC50 [11]: 0.918 nM
Maximum MFI [11]: 16600 MFI
EC50 [12]: 0.131 nM
Maximum OD450 [12]: 3.53 OD450

The next lines start with results.

EC50 (human BCMA [1]): 0.213 nM
Maximum MFI (human BCMA [1]): 63400
EC50 (cynomolgus monkey BCMA): 0.564 nM
Maximum MFI (cynomolgus monkey BCMA): 67700
Kd [4]: 0.0253 nM
koff [4]: 1.07e-05 s⁻¹
kon [4]: 423000 M⁻¹ s⁻¹
EC50 (human BCMA [3]): 1.53 nM
Maximum MFI (human BCMA [3]): 133000
B2: PR001046, anti-BCMA HCAb antibody, clone 1005P63B7 (antibody, human IgG1, V domains shown)
VH: EVQLVETGGGLIQPGGSLRLSCAASGFTVSDNYMTWVRQAPGKGLEWVSVIFSGGNTYYADSVKGRFTISRDNAKNTLYLQMNSLRAEDTALYYCARRNYDDTRGTDVFDIWGQGTMVTVSS
notes: Heavy-chain-only antibody (HCAb), human IgG1 Fc, no light chain
EC50 (nM), target cell killing mediated by antibody internalization (HEK293T/hBCMA cells, a-hFc-MMAF) (human BCMA [2]): 0.571 nM
Maximum killing rate (%), target cell killing mediated by antibody internalization (HEK293T/hBCMA cells, a-hFc-MMAF) (human BCMA [2]): 71.2%

EC50 (human BCMA [1]): 0.153 nM
Maximum MFI (human BCMA [1]): 70000
EC50 (cynomolgus monkey BCMA): 0.329 nM
Maximum MFI (cynomolgus monkey BCMA): 64000
Kd [4]: 0.162 nM
koff [4]: 1.93e-05 s⁻¹
kon [4]: 119000 M⁻¹ s⁻¹
EC50 (human BCMA [3]): 4.8 nM
Maximum MFI (human BCMA [3]): 166000
B8: PR000943, anti-BCMA HCAb antibody, clone 1005P16A10 (antibody, human IgG1, V domains shown)
VH: EVQLVETGGGLIQPGGSLRLSCAASGFPVSSNYMSWVRQAPGKGLEWVSVIFSGGRTYYADSVKGRFTISRDNSKNTLYLQMNSLRAEDTAVYYCARRNWIDGRDAFDIWGQGTMVTVSS
notes: as for B2
EC50 (nM), target cell killing mediated by antibody internalization (HEK293T/hBCMA cells, a-hFc-MMAF) (human BCMA [2]): 0.492 nM
Maximum killing rate (%), target cell killing mediated by antibody internalization (HEK293T/hBCMA cells, a-hFc-MMAF) (human BCMA [2]): 78.7%
